{"source": "patent US20200339638", "assay_in_all_cases": "cell_activity", "key": {"[1]": {"system": "ZFP-TF 75114 (synthetic)", "conditions": "expanded sense transcript, C9021 fibroblasts; total C9 preserved >50%; no repression in C9-BAC mice (p172)"}, "[2]": {"system": "ZFP-TF 75109 (synthetic)", "conditions": "expanded isoform, C9 patient fibroblasts; about 50% total C9 maintained"}, "[3]": {"system": "ZFP-TF 75115 (synthetic)", "conditions": "expanded sense transcript, C9021 fibroblasts; total C9 preserved >50%"}}}
{"sequence": "CACGCCCCGGCCCCGGCCCCGGCCCCTA (double strand) [C9orf72 antisense target, frame 4]", "values": [{"measurement": "activity", "setting": "[1]", "value": "> 70", "unit": "% repression"}, {"measurement": "activity", "setting": "[2]", "value": 70, "unit": "% repression"}, {"measurement": "activity", "setting": "[3]", "value": "> 70", "unit": "% repression"}]}
